This assay concerns the target T1, human full-length Sirt1 (fl-Sirt1) (Homo sapiens, UniProt Q96EB6).
T1 construct: human full-length Sirt1 (fl-Sirt1) in pET-15b; made in house; host or cells: E. coli CodonPlus(DE3)
T1 sequence (Q96EB6 1-747): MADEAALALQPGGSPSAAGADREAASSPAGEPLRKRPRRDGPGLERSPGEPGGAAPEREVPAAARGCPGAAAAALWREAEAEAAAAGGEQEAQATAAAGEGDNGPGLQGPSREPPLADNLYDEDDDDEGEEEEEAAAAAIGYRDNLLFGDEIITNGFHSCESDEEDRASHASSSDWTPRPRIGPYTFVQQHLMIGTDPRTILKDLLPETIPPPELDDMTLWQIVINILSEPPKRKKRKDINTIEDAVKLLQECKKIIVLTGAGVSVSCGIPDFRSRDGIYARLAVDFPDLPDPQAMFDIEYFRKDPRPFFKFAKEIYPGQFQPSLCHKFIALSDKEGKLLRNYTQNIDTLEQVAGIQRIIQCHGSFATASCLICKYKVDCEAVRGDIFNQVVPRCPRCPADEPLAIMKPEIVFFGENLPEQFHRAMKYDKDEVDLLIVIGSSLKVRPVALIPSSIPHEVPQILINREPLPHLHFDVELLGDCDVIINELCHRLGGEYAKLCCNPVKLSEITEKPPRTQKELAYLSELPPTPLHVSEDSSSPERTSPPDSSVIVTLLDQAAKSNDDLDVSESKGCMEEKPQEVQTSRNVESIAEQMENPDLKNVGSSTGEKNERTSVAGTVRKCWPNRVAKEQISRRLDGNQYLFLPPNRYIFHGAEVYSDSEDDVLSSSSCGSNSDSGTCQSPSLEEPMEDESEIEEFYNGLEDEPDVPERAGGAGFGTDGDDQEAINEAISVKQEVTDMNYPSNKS
In words: FdL deacetylation assay, fl-Sirt1. To be noted: FdL assay, 100 µM FdL-1, 500 µM NAD^+, pH 7.8, 37 °C; n = 2; read-out: IC50, fl-Sirt1, truncated Tat-Cys^− constructs. It counts as biochemical. From the text: A human mini-Sirt1 construct (aa 183-505-(GGGS)2-641-665), as described in [27], was generated in a modified pET-19b with a TEV cleavage site. This construct and human full-length Sirt1 (fl-Sirt1) in pET-15b, Sirt1-(183-664) and Sirt1-(214-664) in pET-15b, mini-Sirt1-∆SBD (aa 214-505-(GGGS)2-641-665) and mini-Sirt1-∆ESA (aa 183–505) in a modified pET-19b with TEV cleavage site, Sirt2-(43-356) in a modified pET-19b with a His6-Sumo tag, Sirt3-(93-399) in a modified pET-32a with Trx-His6 tag and TEV cleavage site, hSirt3-(118-399) in pVFT3S (Sungkyunkwan University, Seoul, Republic of Korea) with His6-Trx tag and TEV cleavage site, Sirt5-(34-302) in pET-151/D-TOPO, and Sirt6-(1-355) in pQE80L.1 were purified as described. Shortly, proteins were expressed at 20 °C (mini-Sirt1 constructs at 16 °C) in E. coli CodonPlus(DE3), cell lysates were cleared by centrifugation, and proteins were purified via affinity chromatography using a nickel NTA column. After digestion with thrombin or TEV protease, proteins were re-run over the nickel NTA column, pooled, and concentrated. The samples were, then, subjected either directly to size exclusion chromatography in 50 mM Tris/HCl, pH 8.0, 150 mM NaCl, 1 mM TCEP, or to an ion exchange chromatography followed by size exclusion chromatography. […]

B1: Tat-Cys^− residues 1–63: C-terminally shortened Tat-Cys^− construct, residues 1–63 (protein)
chain: MDPVDPNIEPWNHPGSQPKTASNRAHAKKSAYHSQVAFITKGLGISYGRKKRRQRRRPSQGGQ
What is called IC50 is the midpoint of a concentration-inhibition curve. For B1, the IC50 is about 10 µM.

For the origin of these results see PMC10144703, “Molecular Mechanism of Sirtuin 1 Inhibition by Human Immunodeficiency Virus 1 Tat Protein” (Life, 2023).
